In patent US20180355061A1 (Janssen / Centocor, published 2018):

What was measured:
[1] = target: T1, human PD-1 (soluble analyte in SPR) (human, UniProt Q15116 25-170, limits assumed); assay: SPR (ProteOn XPR36), mAb captured on anti-human IgG Fc, human PD-1 as analyte, 25 C
T1 construct: also called CD279; PDCD1
Experimental: (§1) Affinity measurements were performed using a ProteOn XPR36 system (BioRad). […] Approximately 5000 RU (response units) of mAbs were immobilized. The kinetic experiments were performed at 25° C. in running buffer (DPBS+0.01% P20+100 μg/mL BSA). To perform kinetic experiments, 200 RU of mAbs were captured followed by injections of analytes (human and cyno PD-1) at concentrations ranging from 1.563 nM to 400 nM (in a […] serial dilution). The association phase was monitored for 3 minutes at 50 μL/min, then followed by 10 or 15 minutes of buffer flow (dissociation phase). The chip surface was regenerated with two 18 second pulses of 100 mM H₃PO₄ (Sigma, Cat #7961) at 100 μL/min.
(§2) The collected data were processed using ProteOn Manager software. First, the data was corrected for background using inter-spots. Then, double reference subtraction of the data was performed by using the buffer injection for analyte injections. The kinetic analysis of the data was performed using a Langmuir 1:1 binding model. The result for each mAb was reported in the format of ka (On-rate), kd (Off-rate) and KD (equilibrium dissociation constant).
(§3) Affinity of the antibodies to human and cyno PD-1 was measured using SPR as described in Example 1.

[2] = target: T2, cyno PD-1 (soluble analyte in SPR) (cyno); assay: SPR (ProteOn XPR36), mAb captured on anti-human IgG Fc, cyno PD-1 as analyte, 25 C
T2 construct: also called cynomolgus PD-1
Experimental: as §1, §2, §3

T1 sequence (Q15116 25-170 limits assumed): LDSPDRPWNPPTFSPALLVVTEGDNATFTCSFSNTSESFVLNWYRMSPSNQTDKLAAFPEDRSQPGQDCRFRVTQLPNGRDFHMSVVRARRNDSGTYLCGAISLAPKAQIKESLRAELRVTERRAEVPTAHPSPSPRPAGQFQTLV

Binder | Kd [1] | koff [1] | kon [1] | Kd [2] | koff [2] | kon [2]
PD1B1085 (antibody, human IgG1, kappa, V domains shown, also called VH PD1H585; VL PD1L469) VH: QVQLVQSGSELKKPGASVKVSCKASGYTFTDYSMHWVRQAPGQGLEWMGWINIETGYPTYAQGFTGRFVFSLDTSVSTAYLQISSLKAEDTAVYFCARDYYGTYFYAMDYWGQGTLVTVSS VL: EIVLTQSPATLSLSPGERATLSCTASSSVSSSYLHWYQQKPGLAPRLLIYSTSNLASGIPDRFSGSGSGTDYTLTISRLEPEDFAVYYCHQYHRSPLTFGQGTKLEIKR | 0.911 nM | 0.000142 s⁻¹ | 156000 M⁻¹ s⁻¹ | 6.45 nM | 0.00129 s⁻¹ | 200000 M⁻¹ s⁻¹
PD1B1087 (antibody, human IgG1, kappa, V domains shown, also called VH PD1H587; VL PD1L469) VH: QVQLVQSGSELKKPGASVKVSCKASGYTFTDYSMHWVRQAPGQGLEWMGWINIETGWPTYAQGFTGRFVFSLDTSVSTAYLQISSLKAEDTAVYFCARDYYGTYFYAMDYWGQGTLVTVSS VL: EIVLTQSPATLSLSPGERATLSCTASSSVSSSYLHWYQQKPGLAPRLLIYSTSNLASGIPDRFSGSGSGTDYTLTISRLEPEDFAVYYCHQYHRSPLTFGQGTKLEIKR | 1.44 nM | 0.000239 s⁻¹ | 166000 M⁻¹ s⁻¹ | 11.6 nM | 0.00247 s⁻¹ | 212000 M⁻¹ s⁻¹
PD1B1088 (antibody, human IgG1, kappa, V domains shown, also called VH PD1H405; VL PD1L651) VH: QVQLVQSGSELKKPGASVKVSCKASGYTFTDYSMHWVRQAPGQGLEWMGWINIETGEPTYAQGFTGRFVFSLDTSVSTAYLQISSLKAEDTAVYFCARDYYGTYFYAMDYWGQGTLVTVSS VL: EIVLTQSPATLSLSPGERATLSCTASSSFSSSYLHWYQQKPGLAPRLLIYSTSNLASGIPDRFSGSGSGTDYTLTISRLEPEDFAVYYCHQYHRSPLTFGQGTKLEIKR | 10.9 nM | 0.000341 s⁻¹ | 31300 M⁻¹ s⁻¹ | 72.4 nM | 0.00479 s⁻¹ | 66100 M⁻¹ s⁻¹
PD1B1089 (antibody, human IgG1, kappa, V domains shown, also called VH PD1H405; VL PD1L652) VH: QVQLVQSGSELKKPGASVKVSCKASGYTFTDYSMHWVRQAPGQGLEWMGWINIETGEPTYAQGFTGRFVFSLDTSVSTAYLQISSLKAEDTAVYFCARDYYGTYFYAMDYWGQGTLVTVSS VL: EIVLTQSPATLSLSPGERATLSCTASSSVPSSYLHWYQQKPGLAPRLLIYSTSNLASGIPDRFSGSGSGTDYTLTISRLEPEDFAVYYCHQYHRSPLTFGQGTKLEIKR | 8.09 nM | 0.000474 s⁻¹ | 58600 M⁻¹ s⁻¹ | 90 nM | 0.00839 s⁻¹ | 93200 M⁻¹ s⁻¹
PD1B1091 (antibody, human IgG1, kappa, V domains shown, also called VH PD1H586; VL PD1L651) VH: QVQLVQSGSELKKPGASVKVSCKASGYTFTDYSMHWVRQAPGQGLEWMGWINIETGHPTYAQGFTGRFVFSLDTSVSTAYLQISSLKAEDTAVYFCARDYYGTYFYAMDYWGQGTLVTVSS VL: EIVLTQSPATLSLSPGERATLSCTASSSFSSSYLHWYQQKPGLAPRLLIYSTSNLASGIPDRFSGSGSGTDYTLTISRLEPEDFAVYYCHQYHRSPLTFGQGTKLEIKR | 0.83 nM | 6.44e-05 s⁻¹ | 77700 M⁻¹ s⁻¹ | 9.32 nM | 0.000924 s⁻¹ | 99100 M⁻¹ s⁻¹
PD1B1092 (antibody, human IgG1, kappa, V domains shown, also called VH PD1H587; VL PD1L651) VH: QVQLVQSGSELKKPGASVKVSCKASGYTFTDYSMHWVRQAPGQGLEWMGWINIETGWPTYAQGFTGRFVFSLDTSVSTAYLQISSLKAEDTAVYFCARDYYGTYFYAMDYWGQGTLVTVSS VL: EIVLTQSPATLSLSPGERATLSCTASSSFSSSYLHWYQQKPGLAPRLLIYSTSNLASGIPDRFSGSGSGTDYTLTISRLEPEDFAVYYCHQYHRSPLTFGQGTKLEIKR | 0.214 nM | 3e-05 s⁻¹ | 140000 M⁻¹ s⁻¹ | 3.18 nM | 0.000411 s⁻¹ | 129000 M⁻¹ s⁻¹
PD1B1093 (antibody, human IgG1, kappa, V domains shown, also called VH PD1H585; VL PD1L652) VH: QVQLVQSGSELKKPGASVKVSCKASGYTFTDYSMHWVRQAPGQGLEWMGWINIETGYPTYAQGFTGRFVFSLDTSVSTAYLQISSLKAEDTAVYFCARDYYGTYFYAMDYWGQGTLVTVSS VL: EIVLTQSPATLSLSPGERATLSCTASSSVPSSYLHWYQQKPGLAPRLLIYSTSNLASGIPDRFSGSGSGTDYTLTISRLEPEDFAVYYCHQYHRSPLTFGQGTKLEIKR | 0.349 nM | 4.36e-05 s⁻¹ | 125000 M⁻¹ s⁻¹ | 2.18 nM | 0.000368 s⁻¹ | 169000 M⁻¹ s⁻¹
